Residue numbers refer to the chain shown, from its start. Names and notes keep the numbering of the source. Values joined by “and” are separate entries in the source; they are usually repeats but may differ in a detail not shown here. Equal values may be shown once.
B1: SYCP1αN ΔNtip (domain or fragment, human, UniProt Q15431 112-362, looked up)
chain: EAEKIKKWKVSTEAELRQKESKLQENRKIIEAQRKAIQELQFGNEKVSLKLEEGIQENKDLIKENNATRHLCNLLKETCARSAEKTKKYEYEREETRQVYMDLNNNIEKMITAFEELRVQAENSRLEMHFKLKEDYEKIQHLEQEYKKEINDKEKQVSLLLIQITEKENKMKDLTFLLEESRDKVNQLEEKTKLQSENLKQSIEKQHHLTKELEDIKVSLQRSVSTQKALEEDLQIATKTICQLTEEKETQ
notes: SYCP1αN (101-362) with the αNtip (101-111) deleted; also called SYCP1 ΔNtip; source: E. coli BL21(DE3), co-purified with SYCE3
B2: SYCP1αNcore (amino-acids 206-362) (domain or fragment, human, UniProt Q15431 206-362, looked up)
chain: ETRQVYMDLNNNIEKMITAFEELRVQAENSRLEMHFKLKEDYEKIQHLEQEYKKEINDKEKQVSLLLIQITEKENKMKDLTFLLEESRDKVNQLEEKTKLQSENLKQSIEKQHHLTKELEDIKVSLQRSVSTQKALEEDLQIATKTICQLTEEKETQ
notes: SYCP1 αNcore (tetrameric core), amino-acids 206-362; Tetramer alone (SEC-MALS); two chains in the 2:1 complex with SYCE3; also called SYCP1 tetrameric core; source: E. coli BL21(DE3), purified alone or co-expressed and co-purified with SYCE3 (amylose, TEV, anion exchange, SEC); not shown: MBP, N-terminal, cleaved
B3: MBP-SYCP1αNcore (amino-acids 206-362) (domain or fragment, human, UniProt Q15431 206-362, looked up)
chain: B2 chain
notes: SYCP1 αNcore (tetrameric core), amino-acids 206-362; source: E. coli BL21(DE3), co-expressed with SYCE3 constructs; in lysate (amylose pull-down) or co-purified (amylose, anion exchange, SEC); not shown: MBP, N-terminal, kept
B4: SYCE3 P53Q (natural protein, human, UniProt A1L190 1-88, looked up)
chain: MDDADPEERNYDNMLKMLSDLNKDLEKLLEEMEKISVQATWMAYDMVVMRTNQTLAESMRRLEDAFVNCKEEMEKNWQELLHETKQRL
notes: SYCE3 with P53Q; source: E. coli BL21(DE3), co-purified with SYCP1αNcore; not shown: His or His-MBP, N-terminal, cleaved
B5: His-SYCE3 (full-length, amino-acids 1-88) (natural protein, human, UniProt A1L190 1-88, looked up)
chain: B4 chain with Q53P
notes: SYCE3, full-length = amino-acids 1-88; source: E. coli BL21(DE3), co-expressed with MBP fusions; in lysate (amylose pull-down) or co-purified; not shown: His, N-terminal, kept
B6: MBP-SYCE3 (natural protein, human, UniProt A1L190 1-88, looked up)
chain: B4 chain with Q53P
notes: SYCE3 without a stated truncation; source: E. coli BL21(DE3), co-purified with SYCP1αNcore constructs
B7: SYCE3 W41E Y44E (natural protein, human, UniProt A1L190 1-88, looked up)
chain: B4 chain with W41E, Y44E, Q53P
notes: SYCE3 with W41E Y44E; also called SYCE3 WY; WY mutant; source: E. coli BL21(DE3), purified, alone or co-purified with SYCP1 constructs; not shown: His or His-MBP, N-terminal, cleaved
B8: SYCE3 α1-α2 (amino-acids 12-88) (domain or fragment, human, UniProt A1L190 12-88, looked up)
chain: DNMLKMLSDLNKDLEKLLEEMEKISVQATWMAYDMVVMRTNPTLAESMRRLEDAFVNCKEEMEKNWQELLHETKQRL
notes: SYCE3 α1-α2, amino-acids 12-88; source: E. coli BL21(DE3), co-purified with SYCP1αNcore; not shown: His or His-MBP, N-terminal, cleaved
B9: SYCP1αN (amino-acids 101-362) (domain or fragment, human, UniProt Q15431 101-362, looked up)
chain: GLSRVYSKLYKEAEKIKKWKVSTEAELRQKESKLQENRKIIEAQRKAIQELQFGNEKVSLKLEEGIQENKDLIKENNATRHLCNLLKETCARSAEKTKKYEYEREETRQVYMDLNNNIEKMITAFEELRVQAENSRLEMHFKLKEDYEKIQHLEQEYKKEINDKEKQVSLLLIQITEKENKMKDLTFLLEESRDKVNQLEEKTKLQSENLKQSIEKQHHLTKELEDIKVSLQRSVSTQKALEEDLQIATKTICQLTEEKETQ
notes: SYCP1 α-helical N-terminal region, amino-acids 101-362; source: E. coli BL21(DE3), purified, alone or co-expressed and co-purified with SYCE3
B10: SYCP1αN V105E L109E (domain or fragment, human, UniProt Q15431 101-362, looked up)
chain: B9 chain with V5E, L9E
notes: SYCP1αN, amino-acids 101-362, with V105E L109E; source: E. coli BL21(DE3), in complex with SYCE3
B11: MBP-SYCP1αN (domain or fragment, human, UniProt Q15431 101-362, looked up)
chain: B9 chain
notes: SYCP1αN, amino-acids 101-362; source: E. coli BL21(DE3), co-purified with His-SYCE3
B12: SYCP1 αCore-ΔNtip (amino-acids 112-783) (domain or fragment, human, UniProt Q15431 112-783, looked up)
chain: EAEKIKKWKVSTEAELRQKESKLQENRKIIEAQRKAIQELQFGNEKVSLKLEEGIQENKDLIKENNATRHLCNLLKETCARSAEKTKKYEYEREETRQVYMDLNNNIEKMITAFEELRVQAENSRLEMHFKLKEDYEKIQHLEQEYKKEINDKEKQVSLLLIQITEKENKMKDLTFLLEESRDKVNQLEEKTKLQSENLKQSIEKQHHLTKELEDIKVSLQRSVSTQKALEEDLQIATKTICQLTEEKETQMEESNKARAAHSFVVTEFETTVCSLEELLRTEQQRLEKNEDQLKILTMELQKKSSELEEMTKLTNNKEVELEELKKVLGEKETLLYENKQFEKIAEELKGTEQELIGLLQAREKEVHDLEIQLTAITTSEQYYSKEVKDLKTELENEKLKNTELTSHCNKLSLENKELTQETSDMTLELKNQQEDINNNKKQEERMLKQIENLQETETQLRNELEYVREELKQKRDEVKCKLDKSEENCNNLRKQVENKNKYIEELQQENKALKKKGTAESKQLNVYEIKVNKLELELESAKQKFGEITDTYQKEIEDKKISEENLLEEVEKAKVIADEAVKLQKEIDKRCQHKIAEMVALMEKHKHQYDKIIEERDSELGLYKSKEQEQSSLRASLEIELSNLKAELLSVKKQLEIEREEKEKLKREAKE
notes: SYCP1 α-helical core without the αNtip, amino-acids 112-783; also called SYCP1's full α-helical core, in which αNtips were deleted; source: E. coli BL21(DE3), purified, alone or in complex with SYCE3

Experiments:
[1] = target: the molecule itself; experiment: SEC-MALS; co-expressed and co-purified SYCP1-SYCE3 complexes, 5-20 mg/ml; 20 mM Tris pH 8.0, 150 mM KCl, 2 mM DTT (Superose 6 Increase for MBP-SYCP1αN-His-SYCE3)
[2] = target: the molecule itself; experiment: SEC-MALS; proteins in isolation, 5-20 mg/ml; Superdex 200 Increase, 20 mM Tris pH 8.0, 150 mM KCl, 2 mM DTT
[3] = target: B2; experiment: SEC-MALS; co-expressed and co-purified SYCP1-SYCE3 complexes, 5-20 mg/ml; 20 mM Tris pH 8.0, 150 mM KCl, 2 mM DTT (Superose 6 Increase for MBP-SYCP1αN-His-SYCE3); settings: both partners purified
MBP-SYCP1αN = target: B11; experiment: as above; settings: both partners purified
[4] = target: B3; experiment: as above; settings: both partners purified
[5] = target: B2; experiment: ITC; SYCE3 (400 μM) injected into SYCP1αNcore (70 μM) at 30°C; 25 mM Tris pH 8.0, 250 mM KCl, 2 mM DTT; apparent affinity; settings: both partners purified
[6] = target: B9; experiment: SEC-MALS; co-expressed and co-purified SYCP1-SYCE3 complexes, 5-20 mg/ml; 20 mM Tris pH 8.0, 150 mM KCl, 2 mM DTT (Superose 6 Increase for MBP-SYCP1αN-His-SYCE3); settings: both partners purified

Binder	stoichiometry N [1]	stoichiometry N [3]	also measured
B1	2 SYCP1 chains in the complex with SYCE3		
B2	2 SYCP1 chains in the complex with SYCE3		stoichiometry N [2]: 4
B3	2 SYCP1 chains in the complex with SYCE3		
B4		2 SYCP1 chains per SYCE3 chain	
B5			stoichiometry N (MBP-SYCP1αN): 2 SYCP1 chains per SYCE3 chain (2:1) and 4 SYCP1 chains with 2 SYCE3 chains (4:2); stoichiometry N [4]: 2 SYCP1 chains per SYCE3 chain
B6		2 SYCP1 chains per SYCE3 chain	stoichiometry N [4]: 2 SYCP1 chains per SYCE3 chain
B7		2 SYCP1 chains per SYCE3 chain	Kd [5]: 16 nM; apparent KD of one replicate [5]: 10 nM and 22 nM and 16 nM; stoichiometry N [6]: 2 SYCP1 chains per SYCE3 chain
B8		2 SYCP1 chains per SYCE3 chain	
B9	2 SYCP1 chains in the 2:1 complex with SYCE3 and 4 SYCP1 chains in the 4:2 complex with SYCE3		
B10	2 SYCP1 chains in the complex with SYCE3		
B11	2 SYCP1 chains in the 2:1 complex with SYCE3 and 4 SYCP1 chains in the 4:2 complex with SYCE3		
B12	2 SYCP1 chains in the complex with SYCE3		stoichiometry N [2]: 4

Reference: article PMC7614228, “Structural maturation of SYCP1-mediated meiotic chromosome synapsis by SYCE3” (Nature structural & molecular biology, 2023)
